The target in series [1] is T1, malate synthase (MS, GlcB) (Mycobacterium tuberculosis, UniProt P9WK17 1-741). Description: ALISA. Conditions: protein: recombinant; tags: C-terminal His6.
In series [2] the target is T1, malate synthase (MS, GlcB). The experiment in a line: enzyme inhibition; glyoxylate, acetyl-CoA, 5 mM Mg2+. Conditions: protein: recombinant, tags: C-terminal His6.
Series [3] addresses T1, malate synthase (MS, GlcB). Description: SPR. The conditions noted are these: protein: recombinant, tags: C-terminal His6.
In series [4] the target is T1, malate synthase (MS, GlcB). The experiment in a line: enzyme inhibition (mixed); glyoxylate, acetyl-CoA, 5 mM Mg2+. The conditions noted are these: protein: recombinant, tags: C-terminal His6.
Where [5] appears, read: G4 parallel (CD, NMR), modeled as tetramer of 4 strands.

T1 sequence (P9WK17 whole entry): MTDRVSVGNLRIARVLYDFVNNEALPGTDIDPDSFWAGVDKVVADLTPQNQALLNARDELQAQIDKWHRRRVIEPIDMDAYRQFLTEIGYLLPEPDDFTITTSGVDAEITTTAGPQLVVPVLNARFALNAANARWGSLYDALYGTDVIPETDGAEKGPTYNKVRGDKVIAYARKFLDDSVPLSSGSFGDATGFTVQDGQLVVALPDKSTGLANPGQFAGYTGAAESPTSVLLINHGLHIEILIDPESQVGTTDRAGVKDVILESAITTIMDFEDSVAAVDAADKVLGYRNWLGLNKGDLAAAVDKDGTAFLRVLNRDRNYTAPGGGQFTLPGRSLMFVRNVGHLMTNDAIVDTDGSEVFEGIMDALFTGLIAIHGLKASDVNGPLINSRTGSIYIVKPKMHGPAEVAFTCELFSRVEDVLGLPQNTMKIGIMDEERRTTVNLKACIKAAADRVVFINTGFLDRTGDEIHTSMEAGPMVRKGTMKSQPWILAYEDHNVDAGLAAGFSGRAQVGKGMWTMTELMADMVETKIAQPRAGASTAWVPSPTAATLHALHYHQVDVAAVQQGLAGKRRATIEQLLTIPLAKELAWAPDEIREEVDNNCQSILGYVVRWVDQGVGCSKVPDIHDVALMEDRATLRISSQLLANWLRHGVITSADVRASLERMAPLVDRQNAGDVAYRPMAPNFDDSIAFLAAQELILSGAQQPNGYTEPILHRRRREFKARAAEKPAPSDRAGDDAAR

GGGGTGGTGG (structured_DNA) [MS10-Trunc dT3]: in series [1], the binding result is recorded as “binds”.
Same read-out and setting: to GGTGGTGGGG (structured_DNA) [MS10-Trunc dT9] belongs “binds”.
Usually IC50 stands for the midpoint of a concentration-inhibition curve. As usually defined, the Kd is the free concentration of one partner at which half of the binding sites on the other are occupied at equilibrium, for simple one-to-one binding. As a reminder, the Ki is the equilibrium dissociation constant of an inhibitor or competing ligand from its target. As for GGTGTGTTGACTGAGGGGGTGGGGTGGGTGGTGGTGGATATAGC (structured_DNA) [MS10], the IC50 in series [2] (G4, parallel (CD)) came to 276 nM. Moreover, the Kd in series [3] (G4, parallel (CD)) was 12 nM. The Ki in series [4] (G4, parallel (CD)) was found to be 270 nM.
Regarding GGTGGTGGTGG (structured_DNA) [MS10-Trunc], the IC50 in series [2] (setting [5]) was 251 nM. The Kd in series [3] (setting [5]) came out at 0.019 nM. Further, the Ki in series [4] (setting [5]) turned out to be 230 nM.

These data come from paper PMC6849348, “Theranostic Application of a Novel G-Quadruplex-Forming DNA Aptamer Targeting Malate Synthase of Mycobacterium tuberculosis”.
